Legend:
Test in all cases: capture ELISA on coated 1.14.4; relative to silent alanine substitutions
[1] = biological target: T1, hPD-L1_ECD.His point mutant T201A (human, UniProt Q9NZQ7 19-238)
T1 construct: extracellular domain
Experimental: (§1) After interacting with the supernatant that contains quantified PD-L1 mutant or human/mouse PD-L1_ECD.His protein (Sino Biological, China), HRP conjugated anti-His antibody (1:5000; Rockland Immunochemicals, Pottstown, PA) was added as detection antibody. Absorbance was normalized according to the average of control mutants. After setting an additional cutoff to the binding fold change (<0.55), the final determined epitope residues were identified.
(§2) The observed binding reductions most probably resulted from the instability or even collapse of hPD-L1 structure after alanine substitutions. After setting an additional cutoff to the binding fold change (<0.55), the final determined epitope residues were listed in Table 3.

[2] = biological target: T2, hPD-L1_ECD.His point mutant K62A (human, UniProt Q9NZQ7 19-238)
T2 construct: extracellular domain
Experimental: as §1, §2

[3] = biological target: T3, hPD-L1_ECD.His point mutant R82A (human, UniProt Q9NZQ7 19-238)
T3 construct: extracellular domain
Experimental: as §1, §2

[4] = biological target: T4, hPD-L1_ECD.His point mutant K124A (human, UniProt Q9NZQ7 19-238)
T4 construct: extracellular domain
Experimental: as §1, §2

[5] = biological target: T5, hPD-L1_ECD.His point mutant L231A (human, UniProt Q9NZQ7 19-238)
T5 construct: extracellular domain
Experimental: as §1, §2

[6] = biological target: T6, hPD-L1_ECD.His point mutant T179A (human, UniProt Q9NZQ7 19-238)
T6 construct: extracellular domain
Experimental: as §1, §2

[7] = biological target: T7, hPD-L1_ECD.His point mutant T154A (human, UniProt Q9NZQ7 19-238)
T7 construct: extracellular domain
Experimental: as §1, §2

[8] = biological target: T8, hPD-L1_ECD.His point mutant K105A (human, UniProt Q9NZQ7 19-238)
T8 construct: extracellular domain
Experimental: as §1, §2

[9] = biological target: T9, hPD-L1_ECD.His point mutant K189A (human, UniProt Q9NZQ7 19-238)
T9 construct: extracellular domain
Experimental: as §1, §2

[10] = biological target: T10, hPD-L1_ECD.His point mutant Q100A (human, UniProt Q9NZQ7 19-238)
T10 construct: extracellular domain
Experimental: as §1, §2

[11] = biological target: T11, hPD-L1_ECD.His point mutant Y56A (human, UniProt Q9NZQ7 19-238)
T11 construct: extracellular domain
Experimental: as §1, §2

[12] = biological target: T12, hPD-L1_ECD.His point mutant G70A (human, UniProt Q9NZQ7 19-238)
T12 construct: extracellular domain
Experimental: as §1, §2

[13] = biological target: T13, hPD-L1_ECD.His point mutant L48A (human, UniProt Q9NZQ7 19-238)
T13 construct: extracellular domain
Experimental: as §1, §2

[14] = biological target: T14, hPD-L1_ECD.His point mutant V21A (human, UniProt Q9NZQ7 19-238)
T14 construct: extracellular domain
Experimental: as §1, §2

[15] = biological target: T15, hPD-L1_ECD.His point mutant R113A (human, UniProt Q9NZQ7 19-238)
T15 construct: extracellular domain
Experimental: as §1, §2

[16] = biological target: T16, hPD-L1_ECD.His point mutant S80A (human, UniProt Q9NZQ7 19-238)
T16 construct: extracellular domain
Experimental: as §1, §2

[17] = biological target: T17, hPD-L1_ECD.His point mutant A232G (human, UniProt Q9NZQ7 19-238)
T17 construct: extracellular domain
Experimental: as §1, §2

[18] = biological target: T18, hPD-L1_ECD.His point mutant V147A (human, UniProt Q9NZQ7 19-238)
T18 construct: extracellular domain
Experimental: as §1, §2

[19] = biological target: T19, hPD-L1_ECD.His point mutant Q107A (human, UniProt Q9NZQ7 19-238)
T19 construct: extracellular domain
Experimental: as §1, §2

[20] = biological target: T20, hPD-L1_ECD.His point mutant V111A (human, UniProt Q9NZQ7 19-238)
T20 construct: extracellular domain
Experimental: as §1, §2

[21] = biological target: T21, hPD-L1_ECD.His point mutant P133A (human, UniProt Q9NZQ7 19-238)
T21 construct: extracellular domain
Experimental: as §1, §2

[22] = biological target: T22, hPD-L1_ECD.His point mutant A98G (human, UniProt Q9NZQ7 19-238)
T22 construct: extracellular domain
Experimental: as §1, §2

[23] = biological target: T23, hPD-L1_ECD.His point mutant R186A (human, UniProt Q9NZQ7 19-238)
T23 construct: extracellular domain
Experimental: as §1, §2

[24] = biological target: T24, hPD-L1_ECD.His point mutant T180A (human, UniProt Q9NZQ7 19-238)
T24 construct: extracellular domain
Experimental: as §1, §2

[25] = biological target: T25, hPD-L1_ECD.His point mutant S79A (human, UniProt Q9NZQ7 19-238)
T25 construct: extracellular domain
Experimental: as §1, §2

[26] = biological target: T26, hPD-L1_ECD.His point mutant I38A (human, UniProt Q9NZQ7 19-238)
T26 construct: extracellular domain
Experimental: as §1, §2

T25 sequence (Q9NZQ7 19-238 S79A): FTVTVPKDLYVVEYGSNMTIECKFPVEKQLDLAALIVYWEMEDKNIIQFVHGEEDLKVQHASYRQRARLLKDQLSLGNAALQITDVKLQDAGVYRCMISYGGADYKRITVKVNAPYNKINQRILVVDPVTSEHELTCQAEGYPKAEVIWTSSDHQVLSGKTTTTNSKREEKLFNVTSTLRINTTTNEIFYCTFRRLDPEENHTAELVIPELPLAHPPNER
T11 sequence (Q9NZQ7 19-238 Y56A): as the sequence (Q9NZQ7 19-238 S79A) above, with Y38A, A61S counted along it
T6 sequence (Q9NZQ7 19-238 T179A): as the sequence (Q9NZQ7 19-238 S79A) above, with A61S, T161A counted along it
T8 sequence (Q9NZQ7 19-238 K105A): as the sequence (Q9NZQ7 19-238 S79A) above, with A61S, K87A counted along it
T3 sequence (Q9NZQ7 19-238 R82A): as the sequence (Q9NZQ7 19-238 S79A) above, with A61S, R64A counted along it
T19 sequence (Q9NZQ7 19-238 Q107A): as the sequence (Q9NZQ7 19-238 S79A) above, with A61S, Q89A counted along it
T15 sequence (Q9NZQ7 19-238 R113A): as the sequence (Q9NZQ7 19-238 S79A) above, with A61S, R95A counted along it
T9 sequence (Q9NZQ7 19-238 K189A): as the sequence (Q9NZQ7 19-238 S79A) above, with A61S, K171A counted along it
T24 sequence (Q9NZQ7 19-238 T180A): as the sequence (Q9NZQ7 19-238 S79A) above, with A61S, T162A counted along it
T23 sequence (Q9NZQ7 19-238 R186A): as the sequence (Q9NZQ7 19-238 S79A) above, with A61S, R168A counted along it
T13 sequence (Q9NZQ7 19-238 L48A): as the sequence (Q9NZQ7 19-238 S79A) above, with L30A, A61S counted along it
T14 sequence (Q9NZQ7 19-238 V21A): as the sequence (Q9NZQ7 19-238 S79A) above, with V3A, A61S counted along it
T10 sequence (Q9NZQ7 19-238 Q100A): as the sequence (Q9NZQ7 19-238 S79A) above, with A61S, Q82A counted along it
T1 sequence (Q9NZQ7 19-238 T201A): as the sequence (Q9NZQ7 19-238 S79A) above, with A61S, T183A counted along it
T5 sequence (Q9NZQ7 19-238 L231A): as the sequence (Q9NZQ7 19-238 S79A) above, with A61S, L213A counted along it
T22 sequence (Q9NZQ7 19-238 A98G): as the sequence (Q9NZQ7 19-238 S79A) above, with A61S, A80G counted along it
T7 sequence (Q9NZQ7 19-238 T154A): as the sequence (Q9NZQ7 19-238 S79A) above, with A61S, T136A counted along it
T26 sequence (Q9NZQ7 19-238 I38A): as the sequence (Q9NZQ7 19-238 S79A) above, with I20A, A61S counted along it
T20 sequence (Q9NZQ7 19-238 V111A): as the sequence (Q9NZQ7 19-238 S79A) above, with A61S, V93A counted along it
T12 sequence (Q9NZQ7 19-238 G70A): as the sequence (Q9NZQ7 19-238 S79A) above, with G52A, A61S counted along it
T17 sequence (Q9NZQ7 19-238 A232G): as the sequence (Q9NZQ7 19-238 S79A) above, with A61S, A214G counted along it
T18 sequence (Q9NZQ7 19-238 V147A): as the sequence (Q9NZQ7 19-238 S79A) above, with A61S, V129A counted along it
T21 sequence (Q9NZQ7 19-238 P133A): as the sequence (Q9NZQ7 19-238 S79A) above, with A61S, P115A counted along it
T4 sequence (Q9NZQ7 19-238 K124A): as the sequence (Q9NZQ7 19-238 S79A) above, with A61S, K106A counted along it
T2 sequence (Q9NZQ7 19-238 K62A): as the sequence (Q9NZQ7 19-238 S79A) above, with K44A, A61S counted along it
T16 sequence (Q9NZQ7 19-238 S80A): as the sequence (Q9NZQ7 19-238 S79A) above, with A61S, S62A counted along it

B1: 1.14.4 (antibody, V domains shown)
VH: EVQLLESGGGLVQPGGSLRLSCAASGFTFSSYAMSWVRQAPGKGLEWVSGISGSGGFTYYADSVKGRFTISRDNSKNTLYLQMNSLRAEDTAVYYCAKPPRGYNYGPFDYWGQGTLVTVSS
VL: SYVLTQPPSVSVAPGQTARITCGGNNIGSKSVHWYQQKPGQAPVLVVYDDSDRPSGIPERFSGSNSGNTATLTISRVEAGDEADYYCQVWDSSSDHVVFGGGTKLTVL
notes: Fully human monoclonal antibody with a human constant region of IgG4 isotype
Work on B1 yielded a fold change [1] of 0.781 fold, a fold change [2] of 0.169 fold and a fold change [3] of 0.934 fold. The fold change [4] was 1.06 fold, the fold change [5] was 0.838 fold and the fold change [6] was 0.893 fold. The fold change [7] was 0.888 fold, the fold change [8] was 0.816 fold and the fold change [9] was 0.759 fold. The fold change [10] was 1.01 fold, the fold change [11] was 0.84 fold and the fold change [12] was 0.602 fold. It also gave a fold change [13] of 0.77 fold, a fold change [14] of 0.803 fold and a fold change [15] of 0.161 fold. For the same binder, the fold change [16] was 0.974 fold, the fold change [17] was 0.756 fold and the fold change [18] was 1.02 fold. The fold change [19] was 0.792 fold, the fold change [20] was 0.723 fold and the fold change [21] was 0.664 fold. The fold change [22] was 1.01 fold, the fold change [23] was 0.805 fold and the fold change [24] was 1 fold. The fold change [25] was 0.962 fold and the fold change [26] was 1.13 fold.

Source: US20250313634A1 (WUXI BIOLOGICS SHANGHAI, published 2025)
